Substitutions are numbered along the chain they refer to. Names and notes keep the numbering of the source.
B1: PtFOMT: similar O-methyltransferase cloned from Paeonia tenuifolia, SEQ ID NO: 4; differs from PsFOMT at positions 13, 85, 87, 205 (protein, listed as Paeonia tenuifolia)
chain: MAESDRKGILKSGALLKYILETSVYPREHEQLKQLRQATVDKYKYWSVMNVPADEGQFLSMLLKIMNAKKTIEVGVFTGYSLLTTARALPTDAKITAIDPDGEAYETGLPFIKKAGVEHKINYIQADAMSVLDDLVTNGKEEGSFDFAFVDADKENYAKYHEPLMKLVKIGGIIGYDNTLWFGSVALSDGDEMKEFQEKGRRIFTEFNTFLAADPRIELAHISIGDGLALCRRLY
B2: PtFOMT-T205R: site-directed mutant of PtFOMT, T205R (protein)
chain: B1 chain with T205R
B3: PtFOMT-G13E: site-directed mutant of PtFOMT, G13E (protein)
chain: B1 chain with G13E
B4: PtFOMT-T85A: site-directed mutant of PtFOMT, T85A (protein)
chain: B1 chain with T85A
B5: PtFOMT-R87L: site-directed mutant of PtFOMT, R87L (protein)
chain: B1 chain with R87L

Assays:
[1] = system: Nicotiana tabacum cv.Nc89; assay: Flavonoid O-methyltransferase activity in transgenic tobacco; format: in vivo
Description: The full length genes were introduced with a BamHl site and an XhoI site on 5′- and 3′-end by PCR with primers SEQ No. 5 & 6. The double digested fragment of interest and eukaryotic expression vector pBI121 with BamHl site and an XhoI were ligated. Then the appropriate constructs were introduced into Agrobacterium strain EHA105 by electroporation.
Leaf of Nicotiana tabacum cv.Nc89 plant (Donated by Professor Silan Dai, Beijing Forestry University) was disinfected by 75% ethanol for 30 s, followed by 2% sodium hypochlorite for 3 minutes, and then washed with sterile water for three times. The leaf was cut into squares (25 mm^2) A single colony of Agrobacterium strain EHA105 with pBI121-FOMT construct was used to inoculate with 2 mL of YEB medium (per liter: 5 g of beef extract, 1 g of yeast extract, 5 g of sucrose, and 0.5 g of MgSO4.7H2O), supplemented with 50 mg mL^−1 kanamycin and 25 mg mL^−1 Rifampicin. The culture was incubated at 28° C. until OD600 0.6-0.8, and the bacteria were pelleted by centrifugation at 5000 rpm for 5 minutes. The cells were washed by MS liquid medium and resuspended pellets with appropriate volume of MS liquid. The tobacco leaf squares were dipped into the bacteria solution for 8 minutes and cultivated on MS media containing 2.0 mg L^−1 6-benzylaminopurine (6-BA), 0.2 mg L^−1 1-naphthylacetic acid (NAA), and 500 mg L^−1 ceflomine. The explants were transferred to fresh selected medium after two weeks. When the regenerating plantlets grow to 2 cm, move them to MS media containing 0.2 mg L^−1 NAA to induce root. After four weeks, the transgenic tobacco plantlets were transferred to pots and kept in the greenhouse till flowering. The positive transgenic lines were selected by PCR, and transgenic plantlets with empty plasmid were used as control. The anthocyanins in transgenic petals were detected with an HPLC system.
Appropriate amount of sample (petal, fruits) was powdered with mortars and pestles and extracted for the first time with 2 mL 2% (v/v) formic acid methanol solution shaken in a QL-861 vortex (Kylinbell Lab Instruments, Jiangsu, China), sonicated in KQ-500DE ultrasonic cleaner (Ultrasonic instruments, Jiangsu Kunshan, China) at 20° C. for 20 min, centrifuged in SIGMA 3K30 (SIGMA centrifugers, Germany) (12000 rpm, 10 min), and the supernatant was collected. Additional 2 mL and 1 mL extraction solution was supplemented to the residue, and repeated aforesaid operation for the second and third times. All extract was pooled and filtrated through 0.22 μm reinforced nylon membrane filters (Shanghai ANPEL, Shanghai, China) before the HPLC-DAD and HPLC-ESI-MS^n analyses. Three replicates were performed for each sample. […]
HPLC-ESI-MS^n analysis was carried with an Agilent-1100 HPLC system equipped with a UV detector coupled to a LC-MSD Trap VL ion-trap mass spectrometer via an ESI source (Agilent Technologies, Palo Alto, Calif.). […] The MS conditions were listed as follow: negative-ion (NI) mode; capillary voltage of 3.5 kV; a nebulization pressure of 241.3 kPa; and a gas (N2) temperature of 350° C. with flow rate of 6.0 L min^−1 Capillary offset voltage was 77.2 V. MS spectra were recorded over the range from m/z 50-1000.

[2] = Comparison of activities among recombinant polypeptides with site mutagenesis; format: biochemical; settings: for Activity (%), portion of recombinant protein activity compared with PsFOMT: Cy3G5G as substrate
Protocol: The reaction system was according to Hugueney et al. with some modification (Hugueney, P., et al., A novel cation-dependent O-methyltransferase involved in anthocyanin methylation in grapevine. Plant Physiology, 2009. 150(4): p. 2057-2070.). Purified recombinant FOMT (2 μg) was assayed in a final volume of 200 μL containing 200 μM SAM, 1 mM MgCl2, 14 mM β-mercaptoethanol, 100 mM Tris, pH 7.5, and 20 μM flavonoid substrates. Incubation was performed at 35° C. and stopped with 200 μL methanol containing 2% formic acid. For enzyme kinetic studies, purified FOMT was incubated based on the above condition with the exception that a range of substrate concentrations from 5 to 200 μM were used for Km determination. Reaction product was analyzed by a Dionex HPLC system (Sunnyvale, Calif.), equipped with a P680 HPLC pump, an UltiMate 3000 autosampler, a TCC-100 thermostated column compartment and a Dionex PDA100 photodiode array detector. The analytical column was C18 column of ODS 80Ts QA (150 mm×4.6 mm, 5 μm i.d., Tosoh, Tokyo) protected with a C18 guard cartridge (Shanghai ANPEL Scientific Instrument, Shanghai). The following solvent and gradient were used: A, 10% aqueous formic acid; B, methanol; constant gradient from 10 to 36% B within 15 min and back to 10% B in 3 min; the flow rate was 0.8 mL min^−1; Column temperature was maintained at 35° C.; 20 μL of analyte was injected. Chromatograms were obtained at 525 nm for anthocyanins and 350 nm for other flavonoids, and photodiode array spectra were recorded from 200 to 800 nm. Km and Vmax values were calculated from Lineweaver-Burk plots.
To validate the key amino acid responsible for the activity, site-directed mutagenesis was carried out using the PCR method and Fast Mutagenesis System (TransGen), and primer sequences used are given in Table 1. Four constructs were built following the template sequence of PtFOMT, named as PtFOMT-G13E, PtFOMT-T85A, PtFOMT-R87L, and PtFOMT-T205R. The corresponding recombinant proteins were purified and the catalytic activities were examined. […] The other mutants have no significant improved activity compared with PtFOMT. The leucine at 87-position is a vital residue for the methyltransferase activity.

Row | Molecule | flower color compared with control lines ([1]; transgenic tobacco flowers) | methyltransferase function in tobacco petal (new anthocyanin Pn3R detected) ([1]; transgenic tobacco petals vs empty vector) | Activity (%), portion of recombinant protein activity compared with PsFOMT ([2]; Incubation 5 min) [%] | Activity (%), portion of recombinant protein activity compared with PsFOMT ([2]; Incubation 30 min) [%] | catalytic activity of site-directed mutants ([2]; recombinant purified proteins)
1 | B1 | no obvious difference | performed as a methyltransferase | 0 | 4.2 | 
2 | B2 |  |  | 0 | 38.1 | 
3 | B3 |  |  | 0 | 18.5 | 
4 | B4 |  |  | 0 | 14.0 | 
5 | B5 |  |  | 100.7 | 104.5 | regain the activity equal to PsFOMT

From patent publication US20160177324A1, “NOVEL PROTEIN AND GENE RELATED TO FLAVONOID O-METHYLTRANSFERASE (FOMT) AND THEIR USES THEREFORE” (INSTITUTE OF BOTANY, THE CHINESE ACADEMY OF SCIENCES, priority 2013, published 2016)
